Tests used:
[1] = target: T1, NUB1L (NEDD8 ultimate buster 1 long), tagless (human, UniProt Q9Y5A7-1 1-615); experiment: BLI; Octet; His6-RPN1 loaded on the nickel sensor; NUB1L, GST-FAT10, NUB1L with GST-FAT10 or NUB1L with GST in solution; Octet buffer (PBS, 0.1% Triton X-100, 1x ROTIBlock); 1:1 binding model; settings: both partners purified
T1 construct: NUB1L, human, the long splice variant of NUB1 with one UBL and three UBA domains, printed mass 69.1 kD; The long splice variant is meant; which UniProt isoform id holds it was not checked; By my reading of the printed primers the insert begins at Ala2 (AQKKYLQ) and runs to the stop codon; also called NUB1 long; full-length WT NUB1L; source: recombinant, cloned into the pSUMO vector; expression, …
T1 sequence (looked up): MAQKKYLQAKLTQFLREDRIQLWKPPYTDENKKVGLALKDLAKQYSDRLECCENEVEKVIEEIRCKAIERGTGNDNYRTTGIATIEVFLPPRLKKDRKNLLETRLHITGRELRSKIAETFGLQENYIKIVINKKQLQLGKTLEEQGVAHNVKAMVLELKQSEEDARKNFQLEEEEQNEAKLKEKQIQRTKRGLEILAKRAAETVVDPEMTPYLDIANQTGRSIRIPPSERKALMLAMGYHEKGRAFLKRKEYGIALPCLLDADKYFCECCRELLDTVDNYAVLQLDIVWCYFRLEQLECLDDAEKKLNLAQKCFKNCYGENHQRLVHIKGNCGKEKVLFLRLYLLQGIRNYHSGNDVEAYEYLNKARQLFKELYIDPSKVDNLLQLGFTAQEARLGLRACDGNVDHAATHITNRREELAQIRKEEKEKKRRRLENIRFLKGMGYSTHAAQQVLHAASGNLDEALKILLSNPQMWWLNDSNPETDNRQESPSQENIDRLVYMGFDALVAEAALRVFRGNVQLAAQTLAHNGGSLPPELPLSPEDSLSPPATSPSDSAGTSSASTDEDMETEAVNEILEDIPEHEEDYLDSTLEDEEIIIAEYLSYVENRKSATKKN

His6-RPN10 = target: T2, His6-RPN10 (human, UniProt P55036 1-377); experiment: BLI; Octet; His6-RPN10 on the sensor; GST-FAT10 alone or together with NUB1LΔUBL in solution; Octet buffer; 1:1 binding model; settings: both partners purified
T2 construct: RPN10 (hS5α), subunit of the 19S regulator of the 26S proteasome, human; also called His–RPN10; hS5α; source: recombinant; expression and purification described before (Rani et al, 2012)
T2 sequence (P55036 whole entry): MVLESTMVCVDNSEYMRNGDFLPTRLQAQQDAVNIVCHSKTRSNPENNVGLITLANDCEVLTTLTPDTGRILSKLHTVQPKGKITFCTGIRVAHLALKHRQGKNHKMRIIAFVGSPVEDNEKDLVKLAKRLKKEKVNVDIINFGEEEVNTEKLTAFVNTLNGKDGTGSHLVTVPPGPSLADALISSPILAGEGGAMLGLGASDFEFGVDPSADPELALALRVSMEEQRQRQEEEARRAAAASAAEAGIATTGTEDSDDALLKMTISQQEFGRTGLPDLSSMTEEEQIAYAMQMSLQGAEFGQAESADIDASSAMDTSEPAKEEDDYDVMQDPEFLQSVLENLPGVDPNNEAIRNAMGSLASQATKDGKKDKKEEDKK

B1: GST-FAT10 (natural protein, human, UniProt O15205 1-165, looked up)
chain: MAPNASCLCVHVRSEEWDLMTFDANPYDSVKKIKEHVRSKTKVPVQDQVLLLGSKILKPRRSLSSYGIDKEKTIHLTLKVVKPSDEELPLFLVESGDEAKRHLLQVRRSSSVAQVKAMIETKTGIIPETQIVTCNGKRLEDGKMMADYGIRKGNLLFLACYCIGG
notes: FAT10 (HLA-F adjacent transcript 10), human; source: recombinant; expression and purification previously described (Schmidtke et al, 2006)
B1: binds [1]; binds (His6-RPN10).

Reference: publication PMC10185811, “FAT10 and NUB1L cooperate to activate the 26S proteasome” (Life Science Alliance, 2023)
